# Laboratory results: the supplement of paper PMC9112550, “Optimization of the antimicrobial peptide Bac7 by deep mutational scanning” (BMC Biology, 2022)
# Test system: Escherichia coli TOP10
# Test: shrunken log2 fold change of peptide-encoding DNA abundance (4.5 h post-induction vs induction); higher = less antimicrobial activity (less host growth inhibition)
# Details: time post-induction: 4.5 h; library: site-saturation at positions 5, 18, 19, 20
# 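Further: peptides expressed intracellularly from a pBAD plasmid library in pooled LB shake-flask culture, induced with 0.3% L-arabinose, DNA abundance read by NGS, three biological replicates, DESeq2 with apeglm shrinkage.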
row,Sequence,shrunken log2 fold change
1,RRIRTRPPRLPRPRPRPFSPPRP,-0.375
2,RRIRQRPPRLPRPRPRPCLTPRP,0.0158
3,RRIRLRPPRLPRPRPRPEPVPRP,2.62
4,RRIRLRPPRLPRPRPRPDCPPRP,0.0832
5,RRIRYRPPRLPRPRPRPYAIPRP,-0.00088
6,RRIRCRPPRLPRPRPRPTARPRP,0.105
7,RRIRRRPPRLPRPRPRPCLNPRP,-0.4
8,RRIRWRPPRLPRPRPRPGMQPRP,0.775
9,RRIRKRPPRLPRPRPRPHEPPRP,0.0467
10,RRIRYRPPRLPRPRPRPLPYPRP,-0.156
11,RRIRKRPPRLPRPRPRPEMPPRP,0.668
12,RRIRGRPPRLPRPRPRPYADPRP,0.0582
13,RRIRERPPRLPRPRPRPISDPRP,0.00346
14,RRIRMRPPRLPRPRPRPDGAPRP,2.17
15,RRIRYRPPRLPRPRPRPVGTPRP,0.238
16,RRIRLRPPRLPRPRPRPHSTPRP,-0.149
17,RRIRNRPPRLPRPRPRPWCNPRP,-0.507
18,RRIRLRPPRLPRPRPRPHMIPRP,-0.672
19,RRIRMRPPRLPRPRPRPHLFPRP,-0.0118
20,RRIRCRPPRLPRPRPRPTACPRP,-0.0786
21,RRIRMRPPRLPRPRPRPRPFPRP,0.647
22,RRIRSRPPRLPRPRPRPYRNPRP,-0.254

row,Sequence,shrunken log2 fold change
1,RRIRKRPPRLPRPRPRPQRSPRP,0.392
2,RRIRCRPPRLPRPRPRPSCQPRP,-0.375
3,RRIRDRPPRLPRPRPRPPGHPRP,0.0994
4,RRIRVRPPRLPRPRPRPYTMPRP,-0.49
5,RRIRSRPPRLPRPRPRPQHGPRP,-0.397
6,RRIRCRPPRLPRPRPRPRKEPRP,0.239
7,RRIRYRPPRLPRPRPRPCRQPRP,-0.442
8,RRIRSRPPRLPRPRPRPSYCPRP,-1.07
9,RRIRFRPPRLPRPRPRPVCTPRP,-0.324
10,RRIRTRPPRLPRPRPRPVPYPRP,-0.0764
11,RRIRHRPPRLPRPRPRPWREPRP,-0.0297
12,RRIRKRPPRLPRPRPRPLAAPRP,0.847
13,RRIRSRPPRLPRPRPRPHPPPRP,0.436
14,RRIRWRPPRLPRPRPRPIHPPRP,-0.117
15,RRIRERPPRLPRPRPRPQQQPRP,0.00378
16,RRIRGRPPRLPRPRPRPQARPRP,0.3
17,RRIRLRPPRLPRPRPRPQPVPRP,0.0205
18,RRIRHRPPRLPRPRPRPDCSPRP,-0.284
19,RRIRMRPPRLPRPRPRPSRNPRP,0.476
20,RRIRTRPPRLPRPRPRPAKYPRP,-0.355
21,RRIRCRPPRLPRPRPRPQLKPRP,-0.194
22,RRIRCRPPRLPRPRPRPLPRPRP,0.612

row,Sequence,shrunken log2 fold change
1,RRIRGRPPRLPRPRPRPCKMPRP,-0.0103
2,RRIRHRPPRLPRPRPRPKHDPRP,-0.363
3,RRIRERPPRLPRPRPRPQTWPRP,0.138
4,RRIRGRPPRLPRPRPRPSICPRP,0.207
5,RRIRIRPPRLPRPRPRPMSQPRP,-0.119
6,RRIRRRPPRLPRPRPRPWNSPRP,0.0625
7,RRIRTRPPRLPRPRPRPCMNPRP,-1.43
8,RRIRKRPPRLPRPRPRPLNWPRP,0.0951
9,RRIRFRPPRLPRPRPRPQFLPRP,-0.236
10,RRIRVRPPRLPRPRPRPGGKPRP,0.171
11,RRIRTRPPRLPRPRPRPIPCPRP,-0.0839
12,RRIRFRPPRLPRPRPRPRNGPRP,0.101
13,RRIRYRPPRLPRPRPRPIGAPRP,-0.419
14,RRIRARPPRLPRPRPRPNQWPRP,0.724
15,RRIRNRPPRLPRPRPRPYEQPRP,-0.54
16,RRIRPRPPRLPRPRPRPRTTPRP,0.332
17,RRIRVRPPRLPRPRPRPTIDPRP,-0.0691
18,RRIRGRPPRLPRPRPRPAKGPRP,0.0624
19,RRIRMRPPRLPRPRPRPRDDPRP,0.202
20,RRIRDRPPRLPRPRPRPNLQPRP,-0.71
21,RRIRIRPPRLPRPRPRPSIFPRP,-0.764
22,RRIRNRPPRLPRPRPRPWEAPRP,-0.173

row,Sequence,shrunken log2 fold change
1,RRIRPRPPRLPRPRPRPIIAPRP,-0.681
2,RRIRIRPPRLPRPRPRPPKSPRP,-0.0284
3,RRIRFRPPRLPRPRPRPIYRPRP,-0.122
4,RRIRVRPPRLPRPRPRPFWEPRP,-0.0891
5,RRIRYRPPRLPRPRPRPSSHPRP,-2.24
6,RRIRRRPPRLPRPRPRPGTCPRP,-0.087
7,RRIRRRPPRLPRPRPRPDKGPRP,-0.0101
8,RRIRRRPPRLPRPRPRPRGSPRP,0.729
9,RRIRWRPPRLPRPRPRPTMVPRP,-0.299
10,RRIRGRPPRLPRPRPRPEESPRP,1.82
11,RRIRVRPPRLPRPRPRPASNPRP,-0.0943
12,RRIRERPPRLPRPRPRPRWKPRP,-0.0289
13,RRIRDRPPRLPRPRPRPKMNPRP,-0.366
14,RRIRWRPPRLPRPRPRPKFSPRP,0.346
15,RRIRPRPPRLPRPRPRPHMYPRP,-0.316
16,RRIRCRPPRLPRPRPRPHKWPRP,-0.174
17,RRIRQRPPRLPRPRPRPPHEPRP,0.559
18,RRIRYRPPRLPRPRPRPYKRPRP,-2.31
19,RRIRWRPPRLPRPRPRPKLTPRP,0.475
20,RRIRCRPPRLPRPRPRPKQFPRP,-0.188
21,RRIRCRPPRLPRPRPRPQNDPRP,-0.505
22,RRIRFRPPRLPRPRPRPYFHPRP,-1.66

row,Sequence,shrunken log2 fold change
1,RRIRLRPPRLPRPRPRPVAIPRP,0.0902
2,RRIRKRPPRLPRPRPRPVRMPRP,0.0401
3,RRIRRRPPRLPRPRPRPHCQPRP,0.17
4,RRIRERPPRLPRPRPRPGGSPRP,0.154
5,RRIRKRPPRLPRPRPRPPWEPRP,1.23
6,RRIRMRPPRLPRPRPRPYSKPRP,-0.145
7,RRIRERPPRLPRPRPRPRCPPRP,0.00202
8,RRIRVRPPRLPRPRPRPCLRPRP,-0.146
9,RRIRFRPPRLPRPRPRPGVGPRP,0.358
10,RRIRSRPPRLPRPRPRPKCAPRP,0.0261
11,RRIRRRPPRLPRPRPRPTNNPRP,-0.0392
12,RRIRLRPPRLPRPRPRPTAMPRP,0.0595
13,RRIRMRPPRLPRPRPRPSNMPRP,-0.0931
14,RRIRERPPRLPRPRPRPLFGPRP,-0.0794
15,RRIRYRPPRLPRPRPRPMSLPRP,0.0155
16,RRIRHRPPRLPRPRPRPWAPPRP,-0.251
17,RRIRTRPPRLPRPRPRPYKVPRP,-1.32
18,RRIRKRPPRLPRPRPRPTNRPRP,-0.0262
19,RRIRDRPPRLPRPRPRPHKTPRP,-0.0521
20,RRIRGRPPRLPRPRPRPRVFPRP,1.02
21,RRIRQRPPRLPRPRPRPMPWPRP,0.117
